Data as given in the nanobody polyreactivity screen of Harvey et al. (2022).

Assay: yeast display, Sf9 membrane polyspecificity reagent, FACS + sequencing; frameworks hold sequencing errors
Summary of the method: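 A nanobody's polyreactivity label depends on the gate it was sorted from. Yeast display cells were stained with 10% biotinylated, detergent-solubilized Sf9 membrane reagent for 1 hour at 4 °C, enriched on streptavidin microbeads and sorted by FACS. The low and high (top ~1%) gates were set on anti-HA fluorescence for expression and streptavidin fluorescence for reagent binding.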

Sequence | polyreactivity (PSR sort gate)
QVQLVESGGGLVQAGGSLRLSCAASGSTIPPYVMGWYRQAPGKERELVAAISSSTSSTYYADSVKGRFTISRDNAKNTVYLQMNSLKPEDTAVYYCADEYYTYEYIYDYWGQGTQVTVSS | high polyreactivity
QVQLVESGGGLVQAGGSLRLSCAASGRIFGYYTMGWYRQAPGKERELVAAINGRGTSTYYADSVKGRFTISRDNAKNTVYLQMNSLKPEDTAVYYCAAGGWGPTRAYDYWGQGTQVTVSS | high polyreactivity
QVQLVESGGGLVQAGGSLRLSCAASGYIFTYTMGWYRQAPGKERELVAAISKSGGSTYYADSVKGRFTLSRDNAKNTVYLQMNSLKPEDTAVYYCARRGRYYLYTDDYDYWGQGTQVTVSS | high polyreactivity
QVQLVESGGGLVQAGGSIRLSCAASGSIFYHNAMGWYRPAPGKERELVAAITWSGSTTYYADSVKGRFTISRDNGKNTVYLQMNSLKPEDTAVYYCNAGNRHGHYDYWGQGTQVTVSS | low polyreactivity
QGQLVESGGGLVQAGGSLRLSCAASGRIFYGNVMGWYRQAPGKERELVADISYDGGSTYYADSVKGRFTISRDNAKNTVYLQMNSLKPEDTAVYYCNKREVFIYGTTYDYWGQGTQVTVSS | low polyreactivity
QVQLVESGGGLVQAGGSLRLSCAASGSTFYHYVMGWYRQAPGKERELGAAISWRGGRTYYADSVKGRFTISRDTAKNTVYLQMNSLKPEDTAVYYCARAYFQPSYYGVEYNYWGQGTQVTVSS | high polyreactivity
QVQLVESGGGLVQAGGSLRLSCAASGRIFIYNAMGWSRQAPGKEREFVAAISSSGGSTYYADSVKGRFTISRDNAKNTVYLQMNSLKPEDTAVYYCAAGGWPYSGGWFFQPNYDYWGQGTQVTVSS | low polyreactivity
QVQLVESGGGLVQAGGSLRLSCAASGSTFVTYAMGWYRQAPGKERELVAAITTSGGSTYYADSVKGRFTISRANAMNTVYLQMNSLKPEDTAVYYCIAGFEYTQEYDYWGQGTQVTVSS | low polyreactivity
QFHLVESGGGLVQAGGSLRLSCAASGRNLVRYAMGCYRQAPGKERELVAAISKSGGSTYYADSVKGRFTISRDNAKNTVYLQMNSLKPEDTAVYYSNALVRRRPGYIRYDYWGQGTQVTVSS | low polyreactivity
QVQLVESGGGLVQAGGSLRLICAASGRIWVNAMGWYIQAPGKQREFVAAISTSSASTYYADSVKGRFTISRDNAKNTVYLQMNSLKPEDTAVYYCAARYLGKKYYYWGQGTQVTVSS | high polyreactivity
QVQLVESGGGLVQAGGSLRLSCAASGFIFGSNVMGWYRQAPGKERELVAAISRSGGSTYYADSVKGRFTISRDNAKNTVYLQMNSLKPEDTAVYYCNKLAVGRSRTGDYWGQGTQVTVSS | high polyreactivity
QVQLVESAGGLVQAGGSLRLSFAASGFTFAKYAMGWYRQAPGKERELVAGISRRGGSTYYADSVKGRFTISRDNAKNTVYLQMNSLKPEDTAVYYCNADLVRPGYYRYDYWGQGTQVTVSS | high polyreactivity
QVQLVESGGGLVQAGGSLSLSCAASGRTFSPYAMGWYRQAPGKERELVAAITNGGSTHYADSVKGRFTISRDNAKNTVYLQMNTLKPEYTAVYYCAKSRVLYGYAEYYEMDYWGQGTQVTVSS | low polyreactivity
QVQLVESGGGLVQAGGSLRLSCAASGSTFKPYTMGWYRQAPGKERELVAGISSVDSTDYADSVKGRFTISRDNAKNTVYLQMNSLKPEDTAVYYCNKRKWPTFTYAMNYWGQGTQVSVSS | low polyreactivity
QVQLVESGGGLVQAGGSLRLSCAASGRTIGYYAMGWYRQAPGKERELDAAITRSGGSTYYADSVKGRFTISRDNAKNTVYLQMKSLKPEDTAVYYCATYSVSGKPLGYWGHGTQVTVSS | low polyreactivity
QVQLVESGGGLVQAGGSLRLSCAASGRIFKKNAMGWYRQAPGKERELVASITRGASTNYADSVKGRFTISRDNAKNTVYLQMNSLKPEDTAVYYCAAVITLNGDGPPSDYWGQGTQVTVSS | low polyreactivity
QVQLVESGGGLVQAGGSLRLSCAASGSIFDVYVMGWYRQAPGKERELVAAITSTGSTNYADSVKGRFTISRDNAKNTVYLQMNSLKPEDTAVYYCATDGVYKHIQVLYDYWGQGTQVTVSS | low polyreactivity
